Measurements as given in patent US10500174B2, “Pharmaceutical composition for preventing or treating degenerative brain disease” (SOONCHUNHYANG UNIVERSITY INDUSTRY ACADEMY COOPERATION …, priority 2016, dated 2019).

Assays:
HeLa cells = assay: Evaluation of cellular uptake of ibuprofen conjugate (confocal fluorescence); assay type: cell-based; conditions: 10 μM, 37° C., 30 min, confocal laser scanning microscope
Description: HeLa cells were cultured at 37° C. in wet air containing 5% CO2 in a DMEM (high-glucose Dulbecco's Modified Eagle's Medium) containing penicillin-added 10% (v/v) FBS (fetal bovine serum). Subculturing was performed every 2 to 3 days until the cells became subconfluent.
HeLa cells (1×10^5 cells per well) were seeded on a 35 mm coverglass dish (SPL Ltd., Korea) and cultured for 24 hr, after which the medium was removed, and the HeLa cells were washed with cold PBS (×1) (Dulbecco's phosphate buffered saline, pH 7.4). The resulting cells were cultured at 37° C. for 30 min in 3 ml of DMEM containing 10 μM Compound 8 or 10 μM Compound 9, after which the medium was removed, and the HeLa cells were washed five times with cold PBS. The intracellular internalization and intracellular localization of the compound were investigated through fluorescence, achieved using fluorescein, using a confocal laser scanning microscope (Olympus Fluoview FV1000, N.A. 1.30, 40×, planApo, oil immersion lens). The fluorescence of FITC was analyzed at an excitation wavelength of 488 nm and an emission wavelength of 500 to 530 nm, and all experiments were performed three times.

[1] = Plasma stability test (HPLC); assay type: in vitro ADME; conditions: human plasma, 37° C.
Description: In order to evaluate plasma stability, a homogeneous solution of Compound 8 ([…]) was prepared. An aliquot thereof was injected into the plasma (human, Sigma, USA) so as to reach a final concentration of 50 μg/ml, followed by vortexing and culturing at 37° C. for 0, 3, 6, 9, 12, 15, 18, 21 and 24 hr. The plasma solution (200 μl) was then mixed with 1 ml of MeOH to prevent hydrolysis of Compound 8. This solution was added with biotin (internal standard) in distilled water (100 μl, 5 μg/ml) and centrifuged at 2000 rpm for 10 min. The supernatant was collected and dried in air. The residue was dissolved in distilled water (2 ml) and centrifuged at 2000 rpm for 10 min. The supernatant thus obtained was analyzed using HPLC through the following method.
10 μl of the clean supernatant obtained through the above method was introduced into the HPLC system. The UV detector was set at 260 nm and the flow rate was 1.0 ml/min for a running time of 10 to 15 min. The isocratic mobile phase system consisted of MeOH/H2O (30/70), and the column oven was maintained at 37° C. using a C18-column (Agilent, ZORBAX, 4.6×250 mm, 5 μm).
HPLC chromatograms were obtained at each interval, and the remaining amount of Compound 8 was calculated and expressed as a percentage by subtracting the concentration of ibuprofen, released based on the area under the curve, from the sum of the initial concentration of Compound 8 and the internal standard.

[2] = In-vivo distribution in mouse tissue (fluorescence imaging of tissue flakes); conditions: 94.6 mg kg^−1 intraperitoneal, after 20 min
Description: After 20 min, the mice administered with the above solution were perfused with PBS (pH 7.4) containing paraformaldehyde (4%), and the main organs (brain, heart, lungs, kidneys, spleen and liver) thereof were cultured overnight in PBS (phosphate buffered saline) containing sucrose (0.5 M). A cryoprotectant was added thereto and the above tissue was cut into 15 μm flakes using a cryostat, transferred to a coated slide glass and then dried. Each flake was washed with PBS, treated with Triton X-100 (0.3%) at room temperature for 15 min, and analyzed using an Axioplan2 fluorescence imaging microscope. As a control, deionized water (500 μl) was injected into other mice, and the same procedures as above were performed, after which the compound represented by green fluorescence of FITC in each tissue was compared with autofluorescence of the control.

| Molecule | cellular uptake / intracellular FITC fluorescence (HeLa cells) | hydrolysis relative to the initial time (0 hr) ([1]; 50 μg/ml, after culture for 3 hr) | decrease of the amount remaining ([1]; 50 μg/ml, next culture time of 21 hr (3 to 24 hr)) | half-life and stability in the plasma (in words) ([1]; up to 24 hr) | distribution in brain (green fluorescence of FITC) [2] |
| --- | --- | --- | --- | --- | --- |
| CC(C)Cc1ccc(C(C)C(=O)NCC(=O)OC[C@H](OC(=O)CCCCCN(CCCNC(=N)N)CCCNC(=N)N)[C@@H](OC(=O)CCCCCN(CCCNC(=N)N)CCCNC(=N)N)[C@H](OC(=O)CCCCCN(CCCNC(=N)N)CCCNC(=N)N)[C@@H](COC(=O)CCCCCNC(=S)Nc2ccc3c(c2)C(=O)OC32c3ccc(O)cc3Oc3cc(O)ccc32)OC(=O)CCCCCN(CCCNC(=N)N)CCCNC(=N)N)cc1.Cl.Cl.Cl.Cl.Cl.Cl.Cl.Cl (stereo partly drawn) [Compound 8, 1-O-(2-aminoacetoxy-ibuprofen)-2,3,4,5-tetra-O—[N-{bis-(3-guanidinopropyl)}-6-aminohexanoyl]-6-O-[6-(fluoresceinyl-5-thioureido)-hexanoyl]-D-sorbitol 8HCl] | strong green fluorescence that is predominant in the cytoplasm | about 5% | ~8% | long half-life and considerable stability | – |
| fluoresceinyl (S)-2-(2-(4-isobutylphenyl)propanamido)-acetate [Compound 9] | did not show fluorescence in the cells | – | – | – | not distributed in the brain |
